Measurements taken from patent US20110300561.

Tests used:
Arg-Val = molecular target: T1, Arg-Val
T1 chain: RV

His-Leu = molecular target: T2, His-Leu
T2 chain: HL

Lys-Leu = molecular target: T3, Lys-Leu
T3 chain: KL

Ser-His = molecular target: T4, Ser-His
T4 chain: SH

Ala-Ser = molecular target: T5, Ala-Ser
T5 chain: AS

Gly-Lys = molecular target: T6, Gly-Lys
T6 chain: GK

Phe-Val = molecular target: T7, Phe-Val
T7 chain: FV

Asp-Lys = molecular target: T8, Asp-Lys
T8 chain: DK

Arg-Ile = molecular target: T9, Arg-Ile
T9 chain: RI

Gly-Ser = molecular target: T10, Gly-Ser
T10 chain: GS

Arg-Leu = molecular target: T11, Arg-Leu
T11 chain: RL

Arg-Ala = molecular target: T12, Arg-Ala
T12 chain: RA

Lys-Phe = molecular target: T13, Lys-Phe
T13 chain: KF

B1: Staphylococcus aureus N-Succinyl-L,L-DAP Desuccinylase (DapE) (protein)
chain: MWKEKVQQYEDQIINDLKGLLAIESVRDDAKASEDAPVGPGPRKALDYMYEIAHRDGFTTHDVDHIAGRIEAGKGNDVLGILCHVDVVPAGDGWDSNPFEPVVTEDAIIARGTLDDKGPTIAAYYAIKILEDMNVDWKKRIHMIIGTDEESDWKCTDRYFKTEEMPTLGFAPDAEFPCIHGEKGITTFDLVQNKLTEDQDEPDYELITFKSGERYNMVPDHAEARVLVKENMTDVIQDFEYFLEQNHLQGDSTVDSGILVLTVEGKAVHGMDPSIGVNAGLYLLKFLASLNLDNNAQAFVAFSNRYLFNSDFGEKMGMKFHTDVMGDVTTNIGVITYDNENAGLFGINLRYPEGFEFEKAMDRFANEIQQYGFEVKLGKVQPPHYVDKNDPFVQKLVTAYRNQTNDMTEPYTIGGGTYARNLDKGVAFGAMFSDSEDLMHQKNEYITKKQLFNATSIYLEAIYSLCVEE
B1 was tested, and the “Activity (S. aureus DapE Qualitative Dipeptidase Activity, TLC assay)” value (from here on “Activity”) (Arg-Val) was “+++”, the “Activity” value (His-Leu) was “+” and the “Activity” value (Lys-Leu) was “++”. The “Activity” value (Ser-His) was “++”, the “Activity” value (Ala-Ser) was “+” and the “Activity” value (Gly-Lys) was “+”. For the same protein, the “Activity” value (Phe-Val) was “+++”, the “Activity” value (Asp-Lys) was “+” and the “Activity” value (Arg-Ile) was “+++”. The “Activity” value (Gly-Ser) was “+”, the “Activity” value (Arg-Leu) was “+++” and the “Activity” value (Arg-Ala) was “+++”. For the same protein, the “Activity” value (Lys-Phe) was “++”.
